The results in this text go back to article PMC6152936 (Cell reports, 2018).

This data set deals with the molecule itself. The data set can be described thus: SAXS.

Usually stoichiometry N stands for the number of molecules, sites or subunits per partner or assembly.

B1: TFG N terminus (amino acids 1-138), wild type (domain or fragment, human, UniProt Q92734 1-138, looked up)
chain: MNGQLDLSGKLIIKAQLGEDIRRIPIHNEDITYDELVLMMQRVFRGKLLSNDEVTIKYKDEDGDLITIFDSSDLSFAIQCSRILKLTLFVNGQPRPLESSQVKYLRRELIELRNKVNRLLDSLEPPGEPGPSTNIPEN
B1: the “stoichiometry N” value was determined as 8.
